In publication PMC8446286:

T1: GST-PIF4 (Arabidopsis thaliana, UniProt Q8W2F3 1-430)
T1 sequence: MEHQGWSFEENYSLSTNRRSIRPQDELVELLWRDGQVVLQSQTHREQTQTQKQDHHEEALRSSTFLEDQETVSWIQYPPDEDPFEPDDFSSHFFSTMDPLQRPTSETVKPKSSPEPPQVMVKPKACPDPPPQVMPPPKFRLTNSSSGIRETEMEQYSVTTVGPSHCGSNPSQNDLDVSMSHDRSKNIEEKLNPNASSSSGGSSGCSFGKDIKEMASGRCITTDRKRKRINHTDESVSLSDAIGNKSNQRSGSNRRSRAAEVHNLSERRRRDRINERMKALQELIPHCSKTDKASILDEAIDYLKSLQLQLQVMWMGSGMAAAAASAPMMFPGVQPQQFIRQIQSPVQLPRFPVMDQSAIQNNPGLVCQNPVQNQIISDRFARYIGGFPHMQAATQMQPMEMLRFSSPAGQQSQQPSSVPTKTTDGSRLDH


Target: T1, GST-PIF4
Assay: EMSA

Binder | binding result
NAC019pro-G2 (dsDNA) DNA 1: CATTTCAGAAAACCCGTCAACAAAAAACACGTGAAATAAAATATCTCTTCCTTTACCAGT DNA 2: ACTGGTAAAGGAAGAGATATTTTATTTCACGTGTTTTTTGTTGACGGGTTTTCTGAAATG | no binding
IAA29pro-p (dsDNA) DNA 1: GATGTTGGATGTCTAAATTCGTTGAATCATGTGTCTCTTGACGAAATATGCATCTTCTTA DNA 2: TAAGAAGATGCATATTTCGTCAAGAGACACATGATTCAACGAATTTAGACATCCAACATC | no binding
NAC019pro-G34 (dsDNA) DNA 1: TTGCGCCTAACTTCTACGATAGACACGTGGACACGTGTCGTCATGATGTAGTTTTGTCCG DNA 2: CGGACAAAACTACATCATGACGACACGTGTCCACGTGTCTATCGTAGAAGTTAGGCGCAA | binds
NAC019pro-G1 (dsDNA) DNA 1: ATCACGACGATCTAACTGACACACGTGTCAGAATTCAAAAGTGTTTATAGATAAACACAA DNA 2: TTGTGTTTATCTATAAACACTTTTGAATTCTGACACGTGTGTCAGTTAGATCGTCGTGAT | binds
IAA29pro-G (dsDNA) DNA 1: GAGTAGTCACGCACGCACGACTCCGTTCACGTGACATTCACGTTGATATTTCCCCCTCTA DNA 2: TAGAGGGGGAAATATCAACGTGAATGTCACGTGAACGGAGTCGTGCGTGCGTGACTACTC | binds
